Biological target: rabbit skeletal muscle α-actin (rabbit, UniProt P68135 1-377)
Assay: SPR; BIACORE 3000; actin (10 µg/ml) amine-coupled to a CM5 chip, 1500-1800 RU; running buffer 10 mM HEPES pH 7.4, 150 mM NaCl, 0.005% tween 20; 25°C, 40 µl/min; LL-37 0-500 nM, 1:1 Langmuir model; sLL-37 0-2500 nM, steady state affinity model
Details: both partners purified

B1: scrambled LL-37 (peptide)
peptide: GLKLRFEFSKIKGEFLKTPEVRFRDIKLKDNRISVQR
notes: scrambled order of the residues of LL-37; same net number of positive charges; also called sLL-37; source: bought: Genemed Synthesis Inc; purified by HPLC, purity greater than 90%
  Kd: 138 µM

Source: paper PMC3506534, “LL-37 Induces Polymerization and Bundling of Actin and Affects Actin Structure” (PLoS ONE, 2012)
